# T1: human TROP2 protein (Sino Biological, #10428-H08H) (human, UniProt P09758 27-274)
# T1 construct: bought protein; also called human Trop2 protein antigen (His tag); not shown: His tag
# T1 sequence (looked up): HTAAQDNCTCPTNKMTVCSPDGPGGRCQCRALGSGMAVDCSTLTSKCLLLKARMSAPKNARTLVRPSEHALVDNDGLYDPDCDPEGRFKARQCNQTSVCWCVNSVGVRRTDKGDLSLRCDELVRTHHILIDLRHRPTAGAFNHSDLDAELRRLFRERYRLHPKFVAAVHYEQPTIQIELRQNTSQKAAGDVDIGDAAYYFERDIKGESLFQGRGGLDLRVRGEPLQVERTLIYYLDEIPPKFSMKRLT
# T2: human Trop2 on cells (human, UniProt P09758 27-323)
# T2 sequence (looked up): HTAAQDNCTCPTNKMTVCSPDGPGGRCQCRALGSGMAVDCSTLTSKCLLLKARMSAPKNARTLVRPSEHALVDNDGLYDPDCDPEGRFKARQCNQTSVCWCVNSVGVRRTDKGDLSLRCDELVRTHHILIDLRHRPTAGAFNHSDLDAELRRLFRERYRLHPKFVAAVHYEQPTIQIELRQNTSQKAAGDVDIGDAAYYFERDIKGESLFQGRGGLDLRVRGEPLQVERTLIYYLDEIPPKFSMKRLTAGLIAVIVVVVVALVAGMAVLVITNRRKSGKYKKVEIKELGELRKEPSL
# T3: monkey Trop2 protein (Sino Biological, #90893-C08H) (monkey, UniProt A0A2K5UE71 27-274)
# T3 construct: bought protein; also called monkey Trop2 protein antigen (His tag)
# T3 sequence: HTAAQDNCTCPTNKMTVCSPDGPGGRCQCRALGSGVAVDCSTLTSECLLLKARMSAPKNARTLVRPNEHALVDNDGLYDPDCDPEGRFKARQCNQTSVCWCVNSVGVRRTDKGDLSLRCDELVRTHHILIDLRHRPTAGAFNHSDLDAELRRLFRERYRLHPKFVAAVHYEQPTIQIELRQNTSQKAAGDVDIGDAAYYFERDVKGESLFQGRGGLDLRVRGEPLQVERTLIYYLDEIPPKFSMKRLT
# Legend:
# [1] = molecular target: T1, human TROP2 protein (Sino Biological, …); assay: BLI epitope binning (Octet), biotinylated human Trop2 on SA sensor; row = primary antibody; competitor (secondary antibody, column): PR001165
# Protocol: (§1) The biotinylated mixture after the incubation was washed three times with PBS and a Zeba centrifugal desalting column (Thermo Fisher, #89882) to remove excess biotin. The biotinylated Trop2 protein was captured by an SA sensor (Pall ForteBio, #18-5019) with the loading baseline set at 0.3 nm. The sensor was immersed in a well of assay buffer containing 50 nM primary antibody for 300 s. […] The binding assay was performed by comparing the binding of the secondary antibody to Trop2 in the presence of the primary antibody to the blocking of the primary antibody itself.
# [2] = molecular target: T2, human Trop2 on cells; assay: cell-based or functional assay
# [3] = molecular target: T1, human TROP2 protein (Sino Biological, …); assay: BLI epitope binning (Octet), biotinylated human Trop2 on SA sensor; row = primary antibody; competitor (secondary antibody, column): hRS7
# Protocol: as §1
# [4] = molecular target: T1, human TROP2 protein (Sino Biological, …); assay: BLI, Octet RED96, AHC sensor
# Summary of the method: (§2)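 Antibody at 40 nM is tested against captured human or monkey Trop2, which is loaded at 200 nM. Binding lasts 3 min and washout 5 min, both at 30° C in PBS pH 7.4 containing BSA and Tween 20.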
# [5] = molecular target: T3, monkey Trop2 protein (Sino Biological, …); assay: BLI, Octet RED96, AHC sensor
# Summary of the method: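 Sensor loaded w/ 200 nM Trop2 (human or monkey), PBS pH 7.4 + 0.1% BSA + 0.02% Tween 20. Ab 40 nM, assoc 3 min / dissoc 5 min, 30° C. Real-time binding fit for KD, kon, koff.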
# [6] = molecular target: T1, human TROP2 protein (Sino Biological, …); assay: SPR, Biacore T200, antigen immobilised on CM5 chip
# Protocol: (§3) HBS-EP+ (10 mM HEPES, 150 mM NaCl, 3 mM EDTA, and 0.05% P20, pH 7.4, GE Healthcare, BR-1001-88) was used as a running buffer throughout the test. […] Data were analyzed using Biacore T200 (GE Healthcare, T200 model, #BIAC-B20-03) Evaluation 3.1 software.
# [7] = molecular target: T3, monkey Trop2 protein (Sino Biological, …); assay: SPR, Biacore T200, antigen immobilised on CM5 chip
# Protocol: as §3
# [8] = molecular target: T2, human Trop2 on cells; assay: cell-based or functional assay; remark: listed apart in the source
# [9] = molecular target: T3, monkey Trop2 protein (Sino Biological, …); assay: BLI, Octet RED96; ratio against KD for human Trop2 protein
# Summary of the method: as §2
# [10] = molecular target: T1, human TROP2 protein (Sino Biological, …); assay: BLI epitope binning (Octet), biotinylated human Trop2 on SA sensor; row = primary antibody; competitor (secondary antibody, column): PR001142
# Protocol: as §1
# [11] = molecular target: T1, human TROP2 protein (Sino Biological, …); assay: BLI epitope binning (Octet), biotinylated human Trop2 on SA sensor; row = primary antibody; competitor (secondary antibody, column): PR001166
# Protocol: as §1
Inhibition rate (%) [1],"ADCC (donor 1152#) EC50(nM), BxPC-3 + PBMC, LDH release [2]","ADCC (donor 2153#) EC50(nM), BxPC-3 + PBMC, LDH release [2]",Inhibition rate (%) [3],Kd [4],Response [4],Kd [5],Response [5],Kd [6],Kd [7],"ADCP (Donor A1925144#) EC50(nM), BxPC-3 + macrophages [8]",ADCP (Donor A1925144#) Maximum phagocytosis % [8],ADCP (Donor A1925144#) Minimum phagocytosis % [8],"ADCP (Donor A19143143#) EC50(nM), BxPC-3 + macrophages [8]",ADCP (Donor A19143143#) Maximum phagocytosis % [8],ADCP (Donor A19143143#) Minimum phagocytosis % [8],Binder,ADCC (donor 1152#) Maximum cell killing % [2],ADCC (donor 1152#) Minimum cell killing % [2],ADCC (donor 2153#) Maximum cell killing % [2],ADCC (donor 2153#) Minimum cell killing % [2],further results
99.2%,0.0279 nM,0.0547 nM,97.8%,323 pM,0.39,260 pM,0.382,530 pM,374 pM,0.0362 nM,12%,0.861%,0.199 nM,36.4%,1.75%,"PR001142 (antibody, human IgG1, kappa, V domains shown, fully human IgG1/kappa; also called antibody No. (9)) VH: QVQLQESGPGLVKPSGTLSLTCAVSGDSISSNNWWSWVRQPPGKGLEWIGEIYPGGNPNYNPSLKSRVTISVDKSKNQFSLKLNSVTAADTAVYYCARGSGVISYFDYWGQGTLVTVSS VL: DIQMTQSPSTLSASVGDRVTITCRASQSIGHWLAWYQQKPGKAPKLLIYKASSLESGVPSRFRGSGSGTEFTLTISSLQPDDFATYYCQQYSSYSPITFGQGSRLEIKR",41.6%,4.47%,58.8%,9.28%,koff [4]: 8.78e-05 s⁻¹; kon [4]: 272000 M⁻¹ s⁻¹; koff [5]: 4.29e-05 s⁻¹; kon [5]: 165000 M⁻¹ s⁻¹; koff [6]: 0.000252 s⁻¹; kon [6]: 475000 M⁻¹ s⁻¹; koff [7]: 0.000179 s⁻¹; kon [7]: 479000 M⁻¹ s⁻¹; KD (monkey)/KD (human) [9]: 0.81; Inhibition rate (%) [10]: 101%; Inhibition rate (%) [11]: 85.5%
92%,0.0391 nM,0.08 nM,96.5%,199 pM,0.349,137 pM,0.322,601 pM,619 pM,0.125 nM,14.8%,1.72%,0.208 nM,44.8%,1.04%,"comparative example 2 antibody Tab (hRS7) (antibody, human IgG1, kappa, V domains shown, prepared on the basis of sacituzumab govitecan (ChemPartner, #T07-001); naked antibody) VH: QVQLQQSGSELKKPGASVKVSCKASGYTFTNYGMNWVKQAPGQGLKWMGWINTYTGEPTYTDDFKGRFAFSLDTSVSTAYLQISSLKADDTAVYFCARGGFGSSYWYFDVWGQGSLVTVSS VL: DIQLTQSPSSLSASVGDRVSITCKASQDVSIAVAWYQQKPGKAPKLLIYSASYRYTGVPDRFSGSGSGTDFTLTISSLQPEDFAVYYCQQHYITPLTFGAGTKVEIKR",42.1%,4.32%,62.6%,10.2%,Inhibition rate (%) [10]: 93.3%; Inhibition rate (%) [11]: 7.34%
